According to the Human Domainome abundance scans (Beltran et al. 2025):
± gives the uncertainty stated by the source.

B1: Protein maelstrom homolog, residues 3 to 71; numbered along this chain, Q96JY0 (parent)
chain: NRKASRNAYYFFVQEKIPELRRRGLPVARVADAIPYCSSDWALLREEEKEKYAEMAREWRAAQGKDPGP

Variants of: B1
Test: abundance fitness (aPCA) (normalised: wild type 0, dead -1); higher = more abundant; growth selection in yeast, the domain comes from the species named
Details: Homo sapiens

| Variant | abundance fitness |
| --- | --- |
| NRKASRNAYYFFVQEKIPELRRRGLPVARVADAIPYCSSDWALLREEEKEKYAEMFREWRAAQGKDPGP [A56F] | 0.124 ± 0.13 |
| NRKASRNAYYFFVQEKIPELRRRGLPVARVADAIPYCSSDWALLREEEKEKYAEMEREWRAAQGKDPGP [A56E] | -0.101 ± 0.071 |
| NRKASRNAYYFFVQEKIPELRRRGLPVARVADAIPYCSSDWALLREEEKEKYAEMQREWRAAQGKDPGP [A56Q] | -0.226 ± 0.078 |
| NRKASRNAYYFFVQEKIPELRRRGLPVARVADAIPYCSSDWALLREEEKEKYAEMSREWRAAQGKDPGP [A56S] | -0.02 ± 0.036 |
| NRKASRNAYYFFVQEKIPELRRRGLPVARVADAIPYCSSDWALLREEEKEKYAEMIREWRAAQGKDPGP [A56I] | -0.539 ± 0.23 |
| NRKASRNAYYFFVQEKIPELRRRGLPVARVADAIPYCSSDWALLREEEKEKYAEMCREWRAAQGKDPGP [A56C] | 0.027 ± 0.084 |
| NRKASRNAYYFFVQEKIPELRRRGLPVARVADAIPYCSSDWALLREEEKEKYAEMKREWRAAQGKDPGP [A56K] | -0.671 ± 0.12 |
| NRKASRNAYYFFVQEKIPELRRRGLPVARVADAIPYCSSDWALLREEEKEKYAEMVREWRAAQGKDPGP [A56V] | -0.268 ± 0.058 |
| NRKASRNAYYFFVQEKIPELRRRGLPVARVADAIPYCSSDWALLREEEKEKYAEMLREWRAAQGKDPGP [A56L] | -0.296 ± 0.057 |
| NRKASRNAYYFFVQEKIPELRRRGLPVARVADAIPYCSSDWALLREEEKEKYAEMWREWRAAQGKDPGP [A56W] | -0.236 ± 0.05 |
| NRKASRNAYYFFVQEKIPELRRRGLPVARVADAIPYCSSDWALLREEEKEKYAEMHREWRAAQGKDPGP [A56H] | -0.087 ± 0.042 |
| NRKASRNAYYFFVQEKIPELRRRGLPVARVADAIPYCSSDWALLREEEKEKYAEMRREWRAAQGKDPGP [A56R] | -0.523 ± 0.045 |
| NRKASRNAYYFFVQEKIPELRRRGLPVARVADAIPYCSSDWALLREEEKEKYAEMDREWRAAQGKDPGP [A56D] | -0.31 ± 0.097 |
| NRKASRNAYYFFVQEKIPELRRRGLPVARVADAIPYCSSDWALLREEEKEKYAEMYREWRAAQGKDPGP [A56Y] | 0.208 ± 0.14 |
| NRKASRNAYYFFVQEKIPELRRRGLPVARVADAIPYCSSDWALLREEEKEKYAEMNREWRAAQGKDPGP [A56N] | -0.16 ± 0.13 |
| NRKASRNAYYFFVQEKIPELRRRGLPVARVADAIPYCSSDWALLREEEKEKYAEMPREWRAAQGKDPGP [A56P] | -0.651 ± 0.1 |
| NRKASRNAYYFFVQEKIPELRRRGLPVARVADAIPYCSSDWALLREEEKEKYAEMGREWRAAQGKDPGP [A56G] | -0.302 ± 0.045 |
| NRKASRNAYYFFVQEKIPELRRRGLPVARVADAIPYCSSDWALLREEEKEKYAEMAFEWRAAQGKDPGP [R57F] | -0.332 ± 0.23 |
| NRKASRNAYYFFVQEKIPELRRRGLPVARVADAIPYCSSDWALLREEEKEKYAEMACEWRAAQGKDPGP [R57C] | -0.089 ± 0.15 |
| NRKASRNAYYFFVQEKIPELRRRGLPVARVADAIPYCSSDWALLREEEKEKYAEMADEWRAAQGKDPGP [R57D] | -0.072 ± 0.21 |

| Variant | abundance fitness |
| --- | --- |
| NRKASRNAYYFFVQEKIPELRRRGLPVARVADAIPYCSSDWALLREEEKEKYAEMAAEWRAAQGKDPGP [R57A] | 0.05 ± 0.078 |
| NRKASRNAYYFFVQEKIPELRRRGLPVARVADAIPYCSSDWALLREEEKEKYAEMAEEWRAAQGKDPGP [R57E] | 0.021 ± 0.097 |
| NRKASRNAYYFFVQEKIPELRRRGLPVARVADAIPYCSSDWALLREEEKEKYAQMAREWRAAQGKDPGP [E54Q] | -0.147 ± 0.076 |
| NRKASRNAYYFFVQEKIPELRRRGLPVARVADAIPYCSSDWALLREEEKEKYAVMAREWRAAQGKDPGP [E54V] | -0.068 ± 0.054 |
| NRKASRNAYYFFVQEKIPELRRRGLPVARVADAIPYCSSDWALLREEEKEKYADMAREWRAAQGKDPGP [E54D] | 0.133 ± 0.082 |
| NRKASRNAYYFFVQEKIPELRRRGLPVARVADAIPYCSSDWALLREEEKEKYAHMAREWRAAQGKDPGP [E54H] | -0.161 ± 0.092 |
| NRKASRNAYYFFVQEKIPELRRRGLPVARVADAIPYCSSDWALLREEEKEKYASMAREWRAAQGKDPGP [E54S] | 0.107 ± 0.056 |
| NRKASRNAYYFFVQEKIPELRRRGLPVARVADAIPYCSSDWALLREEEKEKYAAMAREWRAAQGKDPGP [E54A] | -0.123 ± 0.059 |
| NRKASRNAYYFFVQEKIPELRRRGLPVARVADAIPYCSSDWALLREEEKEKYALMAREWRAAQGKDPGP [E54L] | -0.13 ± 0.058 |
| NRKASRNAYYFFVQEKIPELRRRGLPVARVADAIPYCSSDWALLREEEKEKYACMAREWRAAQGKDPGP [E54C] | -0.161 ± 0.075 |
| NRKASRNAYYFFVQEKIPELRRRGLPVARVADAIPYCSSDWALLREEEKEKYAKMAREWRAAQGKDPGP [E54K] | 0.027 ± 0.076 |
| NRKASRNAYYFFVQEKIPELRRRGLPVARVADAIPYCSSDWALLREEEKEKYANMAREWRAAQGKDPGP [E54N] | -0.125 ± 0.09 |
| NRKASRNAYYFFVQEKIPELRRRGLPVARVADAIPYCSSDWALLREEEKEKYAPMAREWRAAQGKDPGP [E54P] | -0.346 ± 0.14 |
| NRKASRNAYYFFVQEKIPELRRRGLPVARVADAIPYCSSDWALLREEEKEKYAFMAREWRAAQGKDPGP [E54F] | -0.396 ± 0.12 |
| NRKASRNAYYFFVQEKIPELRRRGLPVARVADAIPYCSSDWALLREEEKEKYATMAREWRAAQGKDPGP [E54T] | 0.212 ± 0.073 |
| NRKASRNAYYFFVQEKIPELRRRGLPVARVADAIPYCSSDWALLREEEKEKYAYMAREWRAAQGKDPGP [E54Y] | -0.293 ± 0.065 |
| NRKASRNAYYFFVQEKIPELRRRGLPVARVADAIPYCSSDWALLREEEKEKYAWMAREWRAAQGKDPGP [E54W] | -0.299 ± 0.047 |
| NRKASRNAYYFFVQEKIPELRRRGLPVARVADAIPYCSSDWALLREEEKEKYAGMAREWRAAQGKDPGP [E54G] | -0.049 ± 0.044 |
| NRKASRNAYYFFVQEKIPELRRRGLPVARVADAIPYCSSDWALLREEEKEKYAIMAREWRAAQGKDPGP [E54I] | 0.076 ± 0.095 |
